Positions count from the first letter of the chain named. Numbers in names are those of the source.
T1: GST tagged vinculin tail domain (GST-Vt; residues 879–1,066) (human, UniProt P18206-2 879-1066)
T1 construct: human vinculin tail domain, residues 879-1,066 of vinculin (1,066-residue isoform), cloned in pGEX-4T-1; source: E. coli BL21-DE3, purified (GSTrap FF, Superdex 75)
T1 sequence (looked up): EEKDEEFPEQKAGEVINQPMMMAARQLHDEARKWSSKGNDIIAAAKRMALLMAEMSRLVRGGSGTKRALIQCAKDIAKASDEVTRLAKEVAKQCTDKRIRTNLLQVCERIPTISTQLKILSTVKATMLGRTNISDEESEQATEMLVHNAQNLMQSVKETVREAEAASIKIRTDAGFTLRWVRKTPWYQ

T2: head domain of vinculin (VH; residues 1–843) (human, UniProt P18206 1-843)
T2 construct: human vinculin head domain, residues 1-843 (the same in vinculin and metavinculin)
T2 sequence (looked up): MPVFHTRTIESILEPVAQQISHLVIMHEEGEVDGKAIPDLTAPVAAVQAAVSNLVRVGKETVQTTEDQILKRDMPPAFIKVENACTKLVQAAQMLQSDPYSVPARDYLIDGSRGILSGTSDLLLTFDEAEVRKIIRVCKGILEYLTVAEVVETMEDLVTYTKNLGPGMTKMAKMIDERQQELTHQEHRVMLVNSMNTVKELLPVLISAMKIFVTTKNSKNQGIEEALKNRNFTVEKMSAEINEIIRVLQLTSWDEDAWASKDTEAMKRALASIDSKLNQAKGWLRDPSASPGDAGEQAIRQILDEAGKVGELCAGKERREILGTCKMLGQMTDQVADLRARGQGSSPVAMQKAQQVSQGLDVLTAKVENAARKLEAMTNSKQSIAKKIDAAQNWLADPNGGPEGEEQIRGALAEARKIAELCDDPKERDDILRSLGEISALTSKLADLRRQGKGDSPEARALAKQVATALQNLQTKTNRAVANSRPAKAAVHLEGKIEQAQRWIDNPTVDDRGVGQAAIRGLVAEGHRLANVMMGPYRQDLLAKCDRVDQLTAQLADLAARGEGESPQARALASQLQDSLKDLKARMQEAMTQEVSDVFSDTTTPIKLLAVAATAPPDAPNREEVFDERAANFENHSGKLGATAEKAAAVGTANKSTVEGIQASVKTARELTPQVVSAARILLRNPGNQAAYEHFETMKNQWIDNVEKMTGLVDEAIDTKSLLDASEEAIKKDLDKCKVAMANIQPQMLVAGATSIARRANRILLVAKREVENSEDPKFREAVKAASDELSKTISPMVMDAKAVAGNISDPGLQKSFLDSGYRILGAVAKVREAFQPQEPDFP

B1: metavinculin-ΔH1′ (lacking residues 963–983) (natural protein, human, UniProt P18206 1-1134, looked up)
chain: MPVFHTRTIESILEPVAQQISHLVIMHEEGEVDGKAIPDLTAPVAAVQAAVSNLVRVGKETVQTTEDQILKRDMPPAFIKVENACTKLVQAAQMLQSDPYSVPARDYLIDGSRGILSGTSDLLLTFDEAEVRKIIRVCKGILEYLTVAEVVETMEDLVTYTKNLGPGMTKMAKMIDERQQELTHQEHRVMLVNSMNTVKELLPVLISAMKIFVTTKNSKNQGIEEALKNRNFTVEKMSAEINEIIRVLQLTSWDEDAWASKDTEAMKRALASIDSKLNQAKGWLRDPSASPGDAGEQAIRQILDEAGKVGELCAGKERREILGTCKMLGQMTDQVADLRARGQGSSPVAMQKAQQVSQGLDVLTAKVENAARKLEAMTNSKQSIAKKIDAAQNWLADPNGGPEGEEQIRGALAEARKIAELCDDPKERDDILRSLGEISALTSKLADLRRQGKGDSPEARALAKQVATALQNLQTKTNRAVANSRPAKAAVHLEGKIEQAQRWIDNPTVDDRGVGQAAIRGLVAEGHRLANVMMGPYRQDLLAKCDRVDQLTAQLADLAARGEGESPQARALASQLQDSLKDLKARMQEAMTQEVSDVFSDTTTPIKLLAVAATAPPDAPNREEVFDERAANFENHSGKLGATAEKAAAVGTANKSTVEGIQASVKTARELTPQVVSAARILLRNPGNQAAYEHFETMKNQWIDNVEKMTGLVDEAIDTKSLLDASEEAIKKDLDKCKVAMANIQPQMLVAGATSIARRANRILLVAKREVENSEDPKFREAVKAASDELSKTISPMVMDAKAVAGNISDPGLQKSFLDSGYRILGAVAKVREAFQPQEPDFPPPPPDLEQLRLTDELAPPKPPLPEGEVPPPRPPPPEEKDEEFPEQKAGEVINQPMMMAARQLHDEARKWSSKPGIPAAEVGIGVVAEADAADAAGFPVPPDMEDDYEPELLLMPSNQPVGNDIIAAAKRMALLMAEMSRLVRGGSGTKRALIQCAKDIAKASDEVTRLAKEVAKQCTDKRIRTNLLQVCERIPTISTQLKILSTVKATMLGRTNISDEESEQATEMLVHNAQNLMQSVKETVREAEAASIKIRTDAGFTLRWVRKTPWYQ
notes: human metavinculin, full length (1-1,134) lacking residues 963-983 (α-helix H1′): 1-962 joined to 984-1,134; also called MV-ΔH1′; source: E. coli BL21-DE3, purified (as full-length metavinculin); not shown: His8, N-terminal, kept
B2: metavinculin-ΔH1ΔH1′ (lacking residues 895–915 and 963–983) (natural protein, human, UniProt P18206 1-1134, looked up)
chain: MPVFHTRTIESILEPVAQQISHLVIMHEEGEVDGKAIPDLTAPVAAVQAAVSNLVRVGKETVQTTEDQILKRDMPPAFIKVENACTKLVQAAQMLQSDPYSVPARDYLIDGSRGILSGTSDLLLTFDEAEVRKIIRVCKGILEYLTVAEVVETMEDLVTYTKNLGPGMTKMAKMIDERQQELTHQEHRVMLVNSMNTVKELLPVLISAMKIFVTTKNSKNQGIEEALKNRNFTVEKMSAEINEIIRVLQLTSWDEDAWASKDTEAMKRALASIDSKLNQAKGWLRDPSASPGDAGEQAIRQILDEAGKVGELCAGKERREILGTCKMLGQMTDQVADLRARGQGSSPVAMQKAQQVSQGLDVLTAKVENAARKLEAMTNSKQSIAKKIDAAQNWLADPNGGPEGEEQIRGALAEARKIAELCDDPKERDDILRSLGEISALTSKLADLRRQGKGDSPEARALAKQVATALQNLQTKTNRAVANSRPAKAAVHLEGKIEQAQRWIDNPTVDDRGVGQAAIRGLVAEGHRLANVMMGPYRQDLLAKCDRVDQLTAQLADLAARGEGESPQARALASQLQDSLKDLKARMQEAMTQEVSDVFSDTTTPIKLLAVAATAPPDAPNREEVFDERAANFENHSGKLGATAEKAAAVGTANKSTVEGIQASVKTARELTPQVVSAARILLRNPGNQAAYEHFETMKNQWIDNVEKMTGLVDEAIDTKSLLDASEEAIKKDLDKCKVAMANIQPQMLVAGATSIARRANRILLVAKREVENSEDPKFREAVKAASDELSKTISPMVMDAKAVAGNISDPGLQKSFLDSGYRILGAVAKVREAFQPQEPDFPPPPPDLEQLRLTDELAPPKPPLPEGEVPPPRPPPPEEKDEEFPEQKAGEVIPGIPAAEVGIGVVAEADAADAAGFPVPPDMEDDYEPELLLMPSNQPVGNDIIAAAKRMALLMAEMSRLVRGGSGTKRALIQCAKDIAKASDEVTRLAKEVAKQCTDKRIRTNLLQVCERIPTISTQLKILSTVKATMLGRTNISDEESEQATEMLVHNAQNLMQSVKETVREAEAASIKIRTDAGFTLRWVRKTPWYQ
notes: human metavinculin, full length (1-1,134) lacking residues 895-915 (H1) and 963-983 (H1′); source: E. coli BL21-DE3, purified (as full-length metavinculin); not shown: His8, N-terminal, kept
B3: MVt-ΔH1 (residues 959–1,130) as detected by His-tag Western blot in the GST-Vt pull-down (domain or fragment, human, UniProt P18206 959-1130, looked up)
chain: NQPVNQPILAAAQSLHREATKWSSKGNDIIAAAKRMALLMAEMSRLVRGGSGTKRALIQCAKDIAKASDEVTRLAKEVAKQCTDKRIRTNLLQVCERIPTISTQLKILSTVKATMLGRTNISDEESEQATEMLVHNAQNLMQSVKETVREAEAASIKIRTDAGFTLRWVRKT
notes: human metavinculin (1,134 residues), residues 959-1,130; Same construct as m3; source: E. coli, auto-induction media, purified; not shown: His8, N-terminal, kept
B4: metavinculin tail domain (MVt; residues 879–1,134) (domain or fragment, human, UniProt P18206 879-1134, looked up)
chain: EEKDEEFPEQKAGEVINQPMMMAARQLHDEARKWSSKPGIPAAEVGIGVVAEADAADAAGFPVPPDMEDDYEPELLLMPSNQPVNQPILAAAQSLHREATKWSSKGNDIIAAAKRMALLMAEMSRLVRGGSGTKRALIQCAKDIAKASDEVTRLAKEVAKQCTDKRIRTNLLQVCERIPTISTQLKILSTVKATMLGRTNISDEESEQATEMLVHNAQNLMQSVKETVREAEAASIKIRTDAGFTLRWVRKTPWYQ
notes: human metavinculin (1,134 residues) tail domain, residues 879-1,134; Tag-cleaved form as told in the purification methods; the His-detected form of the pull-down is m16; not shown: His6, N-terminal, cleaved
B5: MVt-R975W (residues 879–1134) (domain or fragment, human, UniProt P18206 879-1134, looked up)
chain: B4 chain with R97W
notes: human metavinculin tail domain, residues 879-1,134, with the cardiomyopathy-associated mutation Arg975Trp; also called MVt-Arg975Trp; not shown: His6, N-terminal, cleaved
B6: MVt-ΔH1 (residues 959–1,130) (domain or fragment, human, UniProt P18206 959-1130, looked up)
chain: B3 chain
notes: human metavinculin (1,134 residues), residues 959-1,130 (five-helix bundle H1′, H2-H5); The His-detected form of the pull-down is m17; also called MVt five-helix bundle (α-helices H1′, H2–H5); not shown: His8, N-terminal, cleaved

Columns and labels:
[1] = target: the molecule itself; assay: SEC; Hiload 26/60 Superdex 200 calibrated with molecular weight markers; without PIP2
[2] = target: T1, GST tagged vinculin tail domain …; assay: pull-down; GST-Vt on GST-Sepharose beads, with or without PIP2; tail domains (MVt, MVt-ΔH1) or Vh2–Vh3 as negative control; SDS-PAGE and Western blot with HRP-conjugated αHis or αGST antibodies; conditions: both partners purified
[3] = target: T2, head domain of vinculin (VH; residues …); assay: native gel or EMSA; reciprocal tail displacement: competing tail domains titrated into preformed VH:tail complexes at 2- and 10-fold molar excess; details in Methods S1; conditions: both partners purified

Binder	stoichiometry N [1]	binding result [3]	also measured
B1	2		
B2	2		
B3			binding result [2]: binds
B4		binds	
B5		binds	
B6		binds	

Source: article PMC2873289, “A Helix Replacement Mechanism Directs Metavinculin Functions” (PLoS ONE, 2010)
